Entries after “also recorded” stand apart in the source; their conditions may differ. Where two headings read alike, the source gives them in different places.
Assays:
PTPSL (Homo sapiens) = PTPSL (Homo sapiens) (UniProt Q15256); conditions: cited from earlier work
[1] = molecular target: DUSP16 MKBD MKBD (Homo sapiens) (UniProt Q9BY84); test: ITC; conditions: cited from earlier work
HePTP (Homo sapiens) = HePTP (Homo sapiens) (UniProt P35236); conditions: cited from earlier work
ERK2 [2] = molecular target: T1, ERK2 (Rattus norvegicus, UniProt P63086); test: Isothermal titration calorimetry with ERK2; type: binding
T1 construct: gene Mapk1; made in house
Description: The PTPSLKIM peptide (residues 331–348), STEPKIM (residues 213–229) and STEPKIMKIS (residues 213–256) were synthesized, HPLC purified and verified by mass spectrometry (MS) (>98% purity; Biosynthesis, Inc.). Expression and purification of ERK2 and PTPSLKIMKIS (residues 332–373) was carried out as previously described, [15]. PTPSL (residues 332–655, human), STEP (residues 213–539, mouse) and PSChimera (PTPSL residues 332–373 with STEP residues 257–539; gene synthesized by DNA 2.0) were expressed and purified using the protocol previously described in detail for STEPCAT (residues 244–539). The DUSP16 MAPK binding domain (residues 5–138, human) was expressed and purified as previously described. All purified proteins were stored at −80 °C until use at which point they were thawed and exchanged into the appropriate buffer using size exclusion chromatography (SEC; Superdex 75 26/60; GE Healthcare). The final protein buffer was dependent on the experiment performed. For ITC experiments, the final SEC purification was performed in ITC buffer (10 mM Tris pH 7.5, 150 mM NaCl, 0.1 mM EDTA, 0.5 mM TCEP); for SAXS experiments, the final SEC purification was performed in SAXS buffer (50 mM HEPES pH 6.8, 150 mM NaCl, 5 mM dithiothreitol). PTPSLKIM, STEPKIM and STEPKIMKIS peptides were solubilized in ITC buffer prior to ITC measurements.
ITC experiments were performed at 25 °C using a VP-ITC microcalorimeter (Microcal Inc.). Titrant (10 μL per injection) was injected into the sample cell over a period of 20 seconds with a 250 second interval between titrations to allow for complete equilibration and baseline recovery. 28 injections were delivered during each experiment and the solution in the sample cell was stirred at 307 rpm to ensure rapid mixing. To determine the thermodynamic parameters (ΔH, ΔS, ΔG) and binding constants (K) of the ERK2:PTPSLKIM, ERK2:PTPSL, ERK2:STEP and ERK2:PSChimera interactions, PTPSLKIM, PTPSL, STEP and PSChimera were titrated into ERK2. To determine the same parameters for the ERK2:STEPKIM, ERK2:PTPSLKIMKIS and ERK2:STEPKIMKIS interaction, ERK2 was titrated into the peptides. Titrants were chosen based on the amount of purified protein/peptide available for the experiment. For all titrations the concentrations were slightly varied to ensure independence of the Kd from the protein/peptide concentrations. Data were analyzed with a one-site binding model assuming a binding stoichiometry of 1∶1 using Origin 7.0 software. A nonlinear least-squares algorithm and the titrant and sample cell concentrations were used to fit the heat flow per injection to an equilibrium binding equation, providing values of the stoichiometry (n), change in enthalpy (ΔH) and binding constant (K). All data were repeated in triplicate.

p38α [3] = conditions: values previously published, ref [14], [15], [17], [18], cited from earlier work
Text: We used ITC measurements to determine the binding affinity of STEP and PTPSL for unphosphorylated ERK2 ( Table 1; Figure S1). […] This complex has a ∼3-times lower Kd (tighter binding) than the next tightest complex, ERK2:PTPSL, and a nearly 70-fold greater affinity than the weakest complex, p38α:HePTP [15]. Like STEP, PTPSL binds ERK2 more tightly (∼3.5-fold) than p38α. We also tested peptides that include the kinase specificity s ... || We also generated a chimeric protein in which we fused the PTPSLKIMKIS to STEPCAT (PSchimera; Figure 1A ). […] Thus, they only adopt a single conformation when they bind their respective MAPKs. This is different from the MAPK-binding domains (MKBD) of MAPK phosphatases (MKP; dual specificity phosphatases; DUSPs), [26]. In MKPs, the KIM sequence is part of a stable, folded domain and thus adopts a single, ordered conformation in both the unbound and MAPK-bound states, [28]. […] Our ... || (+ 1 further places)

p38α [4] = conditions: NMR; MAPK-binding domain; ref [18]; cited from earlier work
Text: Although there are a few structural differences between ERK2 and p38α in this region (e.g., the activation loop is six residues longer in ERK2), nearly all residues that that we sh ... || The KIM domains of KIM-PTPs are intrinsically disordered in solution [14], [15]. Thus, they only adopt a single conformation when they bind their respective MAPKs. This is different from the MAPK-binding domains (MKBD) of MAPK phosphatases (MKP; dual specificity phosphatases; DUSPs), [26]. In MKPs, the KIM sequence is part of a stable, folded domain and thus adopts a single, ordered conformation in both the unbound and MAPK-bound states, [28]. […] Our ...

[5] = molecular target: T2, extracellular signal-regulated kinase 2 (ERK2), unphosphorylated (UniProt P63086 1-358); test: ITC; DUSP16 MKBD and ERK2, which was the titrant is not stated; 25 °C; ITC buffer; one-site model; triplicate; conditions: both partners purified
T2 construct: ERK2 (extracellular signal-regulated kinase 2), unphosphorylated; also called MAPK; source: final SEC (Superdex 75 26/60)

ERK2 [6] = molecular target: T1, ERK2; test: SAXS of resting-state complexes with ERK2; for Dmax shorter than that of the ERK2:HePTP complex: values in Å; for Dmax, P(r) function: values in Å; for Rg smaller than that of the ERK2:HePTP resting-state complex: values in Å
Description: To form the ERK2:STEP resting-state complex, purified, unphosphorylated ERK2 was incubated in a 1∶1 molar ratio with purified STEP213-539 at room temperature for 30 minutes and purified using SEC (Superdex 75 26/60 [GE Healthcare]; SAXS buffer). Data for the ERK2:STEP complex were recorded on samples at 0.7, 1.2 and 1.7 mg/ml. All samples were prepared within 48 hours of data acquisition and stored on ice at 4 °C. All samples were filtered ([…], Whatman) immediately prior to data collection. All data was recorded at Beamline X9A at the National Synchrotron Light Source (NSLS) using a Dectris Pilatus 300k (3.4 m distance from the sample for SAXS) and a Photonic Science CCD (0.47 m from the sample for WAXS) detector. 20 μl of sample was continuously flowed through a 1 mm diameter capillary and exposed to an X-ray beam for 30 seconds. Normalization for beam intensity, buffer subtraction and merging of the data from both detectors were carried out using PRIMUS [20]. A Guinier approximation, I(q) = I(0)exp(-q^2Rg ^2/3), where a plot of ln[I(q)] and q^2 is linear for q<1.3/Rg (q is the scattering vector q = 4πsin(θ)/λ; λ, wavelength of X-rays and 2θ is the angle between the incident beam and the scattering X-rays) was performed on at least four independent scattering trials and averaged to determine the radius of gyration (Rg). The linearity of the Guinier region and the intensity at zero scattering angle, I(0), were used to validate that all samples were monodisperse in solution. I(0)/c, where c is concentration, was consistent for all measurements. GNOM [21] was used to determine the pair-distribution function, P(r), for the ERK2:STEP resting-state complex using data collected on the 1.7 mg/ml sample. Twenty-four envelopes were generated using GASBOR [22] and were aligned and averaged using the DAMAVER program suite.

ERK2 [7] = molecular target: T1, ERK2; test: SAXS of resting-state complexes with ERK2; conditions: ERK2:STEP; 24 GASBOR envelopes, DAMAVER; for Dmax shorter than that of the ERK2:HePTP complex: values in Å; for Dmax, P(r) function: values in Å; for Rg smaller than that of the ERK2:HePTP resting-state complex: values in Å
[8] = molecular target: T2, extracellular signal-regulated kinase 2 …; test: ITC; PTPSLKIM, PTPSL, STEP or PSChimera titrated into ERK2 in the cell; 25 °C; 10 mM Tris pH 7.5, 150 mM NaCl, 0.1 mM EDTA, 0.5 mM TCEP; one-site model; triplicate; conditions: both partners purified

Sequence of PTPSL (Homo sapiens) (Q15256 22-657): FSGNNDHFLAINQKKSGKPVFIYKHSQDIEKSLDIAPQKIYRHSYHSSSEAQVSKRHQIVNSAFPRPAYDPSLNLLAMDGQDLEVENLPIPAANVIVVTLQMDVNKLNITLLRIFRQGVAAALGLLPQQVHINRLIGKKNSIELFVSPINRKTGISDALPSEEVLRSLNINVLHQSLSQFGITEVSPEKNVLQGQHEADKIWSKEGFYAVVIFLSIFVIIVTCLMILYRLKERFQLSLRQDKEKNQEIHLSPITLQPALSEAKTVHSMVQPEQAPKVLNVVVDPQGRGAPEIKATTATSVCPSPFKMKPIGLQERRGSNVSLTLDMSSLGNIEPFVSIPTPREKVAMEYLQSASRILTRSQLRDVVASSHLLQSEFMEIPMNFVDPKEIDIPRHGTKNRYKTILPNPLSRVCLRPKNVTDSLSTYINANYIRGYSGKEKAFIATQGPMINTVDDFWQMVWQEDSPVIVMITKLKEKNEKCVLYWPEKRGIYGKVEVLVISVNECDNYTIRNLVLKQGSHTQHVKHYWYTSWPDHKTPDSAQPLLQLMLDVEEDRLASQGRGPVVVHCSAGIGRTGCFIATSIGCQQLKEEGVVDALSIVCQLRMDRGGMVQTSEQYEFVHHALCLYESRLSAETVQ
Sequence of HePTP (Homo sapiens) (P35236 whole entry): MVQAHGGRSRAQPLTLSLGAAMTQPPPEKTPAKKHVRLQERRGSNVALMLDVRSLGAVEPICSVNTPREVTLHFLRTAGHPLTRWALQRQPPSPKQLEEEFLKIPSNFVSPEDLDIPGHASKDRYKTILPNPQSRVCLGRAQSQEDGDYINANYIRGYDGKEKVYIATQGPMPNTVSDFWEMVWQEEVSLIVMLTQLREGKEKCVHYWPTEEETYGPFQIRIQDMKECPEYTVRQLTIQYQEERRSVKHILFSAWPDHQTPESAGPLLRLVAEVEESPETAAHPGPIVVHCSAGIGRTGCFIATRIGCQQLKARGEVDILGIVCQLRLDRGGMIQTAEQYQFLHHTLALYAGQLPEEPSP

In the case of p38α (from UniProt Q16539), the Kd (PTPSL (Homo sapiens)) is given as 380 nM and the Kd [1] is given as 900 nM.

For ERK2 (from UniProt P63086), the Kd (HePTP (Homo sapiens)) is listed as 370 nM.

B1: DUSP16 MAPK binding domain (residues 5-138, human) (domain or fragment, UniProt Q9BY84 5-138, looked up)
chain: MIGTQIVTERLVALLESGTEKVLLIDSRPFVEYNTSHILEAININCSKLMKRRLQQDKVLITELIQHSAKHKVDIDCSQKVVVYDQSSQDVASLSSDCFLTVLLGKLEKSFNSVHLLAGGFAEFSRCFPGLCEG
notes: also called DUSP16 MKBD; DUSP16 MKB domain; source: final SEC
For B1, the “weaker binding to ERK2 than to p38α (difference in Kd)” value (ERK2 [2]; ITC Kd, ERK2 versus p38α) is listed as roughly 1.4 fold, the “affinity for ERK2 compared with p38α (in words)” value (ERK2 [2]; ITC, ERK2 versus p38α) is listed as “binds these MAPKs with similar affinities; also recorded: binds both MAPKs with similar affinities” and the Kd (p38α [3]; listed as DUSP16MKBD-KIM) is listed as 890 ± 230 nM. For the same molecule, the Kd (p38α [3]) was roughly 900 nM, the “interaction with p38α by NMR (in words)” value (p38α [4]) was “interacts at multiple positions with p38α” and the Kd [5] was 1300 nM. The dH [5] was -4.8 kcal/mol.

B2: STEP (residues 213-539, mouse) (domain or fragment, UniProt P54830 213-539, looked up)
chain: MGLQERRGSNVSLTLDMCTPGCNEEGFGYLVSPREESAHEYLLSASRVLRAEELHEKALDPFLLQAEFFEIPMNFVDPKEYDIPGLVRKNRYKTILPNPHSRVRLTSPDPEDPLSSYINANYIRGYSGEEKVYIATQGPIVSTVADFWRMVWQERTPIIVMITNIEEMNEKCTEYWPEEQVVHDGVEITVQKVIHTEDYRLRLISLRRGTEERSLKHYWFTSWPDQKTPDRAPPLLHLVREVEEAAQQEGPHCSPIIVHCSAGIGRTGCFIATSICCQQLRREGVVDILKTTCQLRQDRGGMIQTCEQYQFVHHAMSLYEKQLSLQS
notes: STEP (PTPN5, striatal enriched protein tyrosine phosphatase), mouse, residues 213-539 (KIM, KIS and catalytic domain); The results loosely call this construct 'full-length STEP'; the construct is residues 213-539; also called STEP_(213-539); PTPN5; source: final SEC
With B2 the “relative binding to ERK2 (in words)” value (ERK2 [2]; ERK2, ITC) was “tightest binding complex of all MAPK:KIM-PTP complexes tested; also recorded: more strongly than does HePTP”, the “tighter binding to ERK2 than the STEPKIM peptide” value (ERK2 [2]; ERK2, ITC, versus STEPKIM) was 11 times and the “lower Kd (tighter binding) than the next tightest complex, ERK2:PTPSL” value (ERK2 [2]; ERK2:STEP versus ERK2:PTPSL) was roughly 3 times. The “tighter binding to ERK2 than to p38α” value (ERK2 [2]; ITC Kd, ERK2 versus p38α) was roughly 12 times, the “tighter binding to ERK2 than to p38α (fold difference in affinity)” value (ERK2 [2]; ITC Kd, ERK2 versus p38α) was 12 fold and the “affinity for ERK2 compared with p38α (in words)” value (ERK2 [2]; ITC, ERK2 versus p38α) was “higher binding affinity for ERK2 than for p38α; also recorded: bind more strongly to ERK2”. The TΔS (ERK2 [2]; unphosphorylated ERK2, ITC, 25 °C, 10 mM Tris pH 7.5, 150 mM NaCl, 0.1 mM EDTA, 0.5 mM TCEP, average and standard deviation, triplicate) was -19.7 ± 2.0 kcal/mol, the “Dmax, P(r) function” value (ERK2 [6]; ERK2:STEP resting-state complex, GNOM, 1.7 mg/ml sample) was 95 Å and the “Rg, P(r) function calculation” value (ERK2 [6]; ERK2:STEP resting-state complex, GNOM, 1.7 mg/ml sample, Q-range 0.013–0.303 Å^−1) was 31.1 Å. For the same molecule, the “Dmax shorter than that of the ERK2:HePTP complex” value (ERK2 [6]; ERK2:STEP versus ERK2:HePTP) was roughly 15 Å, the “Rg smaller than that of the ERK2:HePTP resting-state complex” value (ERK2 [6]; ERK2:STEP versus ERK2:HePTP) was roughly 3.0 Å and the “Rg and Dmax compared with p38α:STEP complex (in words)” value (ERK2 [6]; ERK2:STEP versus p38α:STEP resting-state complex) was “highly similar to those determined for the p38α:STEP resting-state complex”. For the same molecule, the “χ^2, structure modeling” value (ERK2 [6]; ERK2:STEP, 24 GASBOR envelopes) was 2.3±0.2, the “shape of the complex with ERK2 (in words)” value (ERK2 [6]; resting-state complex, SAXS) was “compact; also recorded: more compact, globular complexes” and the Kd (p38α [3]) was 577 ± 71 nM. For the same molecule, the “NSD, structure modeling” value (ERK2 [7]) was 1.31±0.05, the Kd [8] was 48 nM and the dH [8] was -29.5 kcal/mol.

Reference: article PMC3956856, “Interaction of Kinase-Interaction-Motif Protein Tyrosine Phosphatases with the Mitogen-Activated Protein Kinase ERK2” (PLoS ONE, 2014)
